B1: glmS ribozyme (parent)
chain: AUAAAAGCGCCAGAACUACAGAAAUGUAGUUGACGAGGAGGAGGUUUAUCGAAUUUUCGGCGGAUGCCUCCAAA

Conditions in all cases: with glucosamine-6-phosphate
Variants of B1 are the subject of series [1]. As to the kind of experiment: self-cleavage kobs at 40 uM GlcN6P; higher = faster cleavage; RNA array. Summed up: (§1)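 Tracking of barcoded ribozyme variants used a hybridised Cy3 probe at 37 °C, after in situ transcription by E. coli RNA polymerase on sequenced MiSeq chips. The flowed solution held 40 μM to 10 mM glucosamine-6-phosphate in HEPES/KCl/Mg(OAc)2 buffer, and imaging ran over ~14 h. kobs was taken from exponential decay fits of normalised per-tile medians, and kcat and KM from weighted Michaelis–Menten fits.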

In series [2] the parent is B1. As to the kind of experiment: self-cleavage kobs at 160 uM GlcN6P; higher = faster cleavage; RNA array. Summed up: as §1
The variants in series [3] derive from B1. As to the kind of experiment: self-cleavage kobs at 640 uM GlcN6P; higher = faster cleavage; RNA array. Summed up: as §1
Variants of B1 are the subject of series [4]. As to the kind of experiment: self-cleavage kobs at 2500 uM GlcN6P; higher = faster cleavage; RNA array. Summed up: as §1
Series [5] covers variants of B1. As to the kind of experiment: self-cleavage kobs at 10000 uM GlcN6P; higher = faster cleavage; RNA array. Summed up: as §1

± gives the standard error. Fewer inactive variants are shown than the library holds. Some results are limits rather than exact numbers.

Consider C34U U56A, for which the “self-cleavage kobs at 40 uM GlcN6P” value in series [1] was less than 1e-05 s⁻¹. Also, the “self-cleavage kobs at 160 uM GlcN6P” value in series [2] is less than 1e-05 s⁻¹. For the same variant, the “self-cleavage kobs at 640 uM GlcN6P” value in series [3] is less than 1e-05 s⁻¹. In addition, the “self-cleavage kobs at 2500 uM GlcN6P” value in series [4] is less than 1e-05 s⁻¹.
As for C10A G32A G51A, the “self-cleavage kobs at 40 uM GlcN6P” value in series [1] was less than 1e-05 s⁻¹.
For G43U G44U, the “self-cleavage kobs at 40 uM GlcN6P” value in series [1] is less than 1e-05 s⁻¹. The “self-cleavage kobs at 160 uM GlcN6P” value in series [2] is less than 1e-05 s⁻¹. The “self-cleavage kobs at 640 uM GlcN6P” value in series [3] was less than 1e-05 s⁻¹. In addition, the “self-cleavage kobs at 2500 uM GlcN6P” value in series [4] was less than 1e-05 s⁻¹. Also, in series [5], the “self-cleavage kobs at 10000 uM GlcN6P” value is less than 1e-05 s⁻¹.
For the variant A12G G62A, the “self-cleavage kobs at 40 uM GlcN6P” value in series [1] is less than 1e-05 s⁻¹. For the same variant, the “self-cleavage kobs at 640 uM GlcN6P” value in series [3] is less than 1e-05 s⁻¹. For the same variant, the “self-cleavage kobs at 10000 uM GlcN6P” value in series [5] was less than 1e-05 s⁻¹.
With A6G A14G A39C, the “self-cleavage kobs at 40 uM GlcN6P” value in series [1] is less than 1e-05 s⁻¹. Further, the “self-cleavage kobs at 2500 uM GlcN6P” value in series [4] is 9.9e-05 ± 2.3e-05 s⁻¹. In addition, the “self-cleavage kobs at 10000 uM GlcN6P” value in series [5] was determined as 0.000209 ± 4.5e-05 s⁻¹.
For the variant G44A G63U, the “self-cleavage kobs at 40 uM GlcN6P” value in series [1] was less than 1e-05 s⁻¹. Moreover, the “self-cleavage kobs at 160 uM GlcN6P” value in series [2] is less than 1e-05 s⁻¹. Also, in series [3], the “self-cleavage kobs at 640 uM GlcN6P” value is less than 1e-05 s⁻¹. Besides, the “self-cleavage kobs at 2500 uM GlcN6P” value in series [4] is less than 1e-05 s⁻¹. Besides, the “self-cleavage kobs at 10000 uM GlcN6P” value in series [5] was less than 1e-05 s⁻¹.
Regarding C16U C61G U65G, in series [1], the “self-cleavage kobs at 40 uM GlcN6P” value is less than 1e-05 s⁻¹.
As for C34A C61A G63U, in series [1], the “self-cleavage kobs at 40 uM GlcN6P” value was less than 1e-05 s⁻¹. For the same variant, the “self-cleavage kobs at 10000 uM GlcN6P” value in series [5] is less than 1e-05 s⁻¹.
With C11U C16U, in series [1], the “self-cleavage kobs at 40 uM GlcN6P” value worked out at 6.96e-05 ± 2e-05 s⁻¹. Besides, the “self-cleavage kobs at 160 uM GlcN6P” value in series [2] came out at 8.34e-05 ± 2.3e-05 s⁻¹. In addition, the “self-cleavage kobs at 640 uM GlcN6P” value in series [3] was 0.000352 ± 9.4e-05 s⁻¹. For the same variant, the “self-cleavage kobs at 2500 uM GlcN6P” value in series [4] stood at 0.00134 ± 0.00058 s⁻¹. Also, in series [5], the “self-cleavage kobs at 10000 uM GlcN6P” value is 0.00196 ± 0.0007 s⁻¹.
Turning to A14U G41C G43A G63U C67A C70A, the “self-cleavage kobs at 40 uM GlcN6P” value in series [1] was less than 1e-05 s⁻¹. In series [5], the “self-cleavage kobs at 10000 uM GlcN6P” value was less than 1e-05 s⁻¹.
With U31G G44A, in series [1], the “self-cleavage kobs at 40 uM GlcN6P” value was less than 1e-05 s⁻¹. Also, the “self-cleavage kobs at 2500 uM GlcN6P” value in series [4] came to 5.95e-05 ± 2.1e-05 s⁻¹. The “self-cleavage kobs at 10000 uM GlcN6P” value in series [5] turned out to be 9.7e-05 ± 2.6e-05 s⁻¹.
For U30A G44U, in series [1], the “self-cleavage kobs at 40 uM GlcN6P” value was less than 1e-05 s⁻¹.
As to G7A G41A U45C U49A, the “self-cleavage kobs at 40 uM GlcN6P” value in series [1] was less than 1e-05 s⁻¹.
On to G7U A12U A52G U55G, for which the “self-cleavage kobs at 40 uM GlcN6P” value in series [1] was less than 1e-05 s⁻¹. The “self-cleavage kobs at 10000 uM GlcN6P” value in series [5] was less than 1e-05 s⁻¹.
On to A6G A33U, for which, in series [1], the “self-cleavage kobs at 40 uM GlcN6P” value was less than 1e-05 s⁻¹. In series [2], the “self-cleavage kobs at 160 uM GlcN6P” value is less than 1e-05 s⁻¹. The “self-cleavage kobs at 640 uM GlcN6P” value in series [3] is less than 1e-05 s⁻¹. In addition, the “self-cleavage kobs at 2500 uM GlcN6P” value in series [4] is less than 1e-05 s⁻¹.
Turning to A6G G60C, the “self-cleavage kobs at 40 uM GlcN6P” value in series [1] was less than 1e-05 s⁻¹. Also, the “self-cleavage kobs at 160 uM GlcN6P” value in series [2] is less than 1e-05 s⁻¹. Also, the “self-cleavage kobs at 640 uM GlcN6P” value in series [3] is less than 1e-05 s⁻¹. Moreover, the “self-cleavage kobs at 2500 uM GlcN6P” value in series [4] is less than 1e-05 s⁻¹.
Consider A14U G29U G44U U56A, for which, in series [1], the “self-cleavage kobs at 40 uM GlcN6P” value was less than 1e-05 s⁻¹.
Still for that read-out and setting: the value for G9A C10G C68U was less than 1e-05 s⁻¹.
Regarding C11G G40A G43A, in series [1], the “self-cleavage kobs at 40 uM GlcN6P” value is less than 1e-05 s⁻¹. The “self-cleavage kobs at 10000 uM GlcN6P” value in series [5] was less than 1e-05 s⁻¹.
As for G32A A53U U65C, in series [1], the “self-cleavage kobs at 40 uM GlcN6P” value was less than 1e-05 s⁻¹. In addition, the “self-cleavage kobs at 160 uM GlcN6P” value in series [2] was less than 1e-05 s⁻¹. The “self-cleavage kobs at 640 uM GlcN6P” value in series [3] is less than 1e-05 s⁻¹.
With C8A U31G, the “self-cleavage kobs at 40 uM GlcN6P” value in series [1] was less than 1e-05 s⁻¹. Moreover, the “self-cleavage kobs at 160 uM GlcN6P” value in series [2] is less than 1e-05 s⁻¹. Also, the “self-cleavage kobs at 640 uM GlcN6P” value in series [3] was less than 1e-05 s⁻¹. In addition, the “self-cleavage kobs at 2500 uM GlcN6P” value in series [4] is less than 1e-05 s⁻¹. In addition, the “self-cleavage kobs at 10000 uM GlcN6P” value in series [5] was less than 1e-05 s⁻¹.
As for A15G U30G, the “self-cleavage kobs at 40 uM GlcN6P” value in series [1] was 0.000265 ± 4.2e-05 s⁻¹. The “self-cleavage kobs at 160 uM GlcN6P” value in series [2] stood at 0.000476 ± 0.00016 s⁻¹. For the same variant, in series [3], the “self-cleavage kobs at 640 uM GlcN6P” value is 0.00124 ± 0.00035 s⁻¹. Also, in series [5], the “self-cleavage kobs at 10000 uM GlcN6P” value was 0.00934 ± 0.002 s⁻¹.

The values are drawn from the supplement of paper PMC7125110.
